Results as given in the Human Domainome abundance scans (Beltran et al. 2025).
± gives the uncertainty stated by the source.

B1: Receptor-interacting serine/threonine-protein kinase 2, residues 438 to 518; numbered along this chain, O43353 (parent)
chain: QWIQSKREDIVNQMTEACLNQSLDALLSRDLIMKEDYELVSTKPTRTSKVRQLLDTTDIQGEEFAKVIVQKLKDNKQMGLQ

Variants of: B1
Test: abundance fitness (aPCA) (normalised: wild type 0, dead -1); higher = more abundant; growth selection in yeast, the domain comes from the species named
Settings: Homo sapiens

In order of falling abundance fitness:
1. QWIQSKREDIVNQMTEACLNQSLDALLSRDLIMKEDYELVSQKPTRTSKVRQLLDTTDIQGEEFAKVIVQKLKDNKQMGLQ [T42Q]  0.207 ± 0.13
2. QWIQSKREDIVNQMTEACLNQSLDALLSRDLIMKEDYELVSRKPTRTSKVRQLLDTTDIQGEEFAKVIVQKLKDNKQMGLQ [T42R]  0.066 ± 0.061
3. QWIQSKREDIVNQMTEACLNQSLDALLSRDLIMKEDYELVSSKPTRTSKVRQLLDTTDIQGEEFAKVIVQKLKDNKQMGLQ [T42S]  0.022 ± 0.061
4. QWIQSKREDIVNQMTEACLNQSLDALLSRDLIMKEDYELVSTRPTRTSKVRQLLDTTDIQGEEFAKVIVQKLKDNKQMGLQ [K43R]  0.013 ± 0.061
5. QWIQSKREDIVNQMTEACLNQSLDALLSRDLIMKEDYELVSMKPTRTSKVRQLLDTTDIQGEEFAKVIVQKLKDNKQMGLQ [T42M]  0.012 ± 0.1
6. QWIQSKREDIVNQMTEACLNQSLDALLSRDLIMKEDYELVSTLPTRTSKVRQLLDTTDIQGEEFAKVIVQKLKDNKQMGLQ [K43L]  -0.008 ± 0.075
7. QWIQSKREDIVNQMTEACLNQSLDALLSRDLIMKEDYELVSTQPTRTSKVRQLLDTTDIQGEEFAKVIVQKLKDNKQMGLQ [K43Q]  -0.098 ± 0.14
8. QWIQSKREDIVNQMTEACLNQSLDALLSRDLIMKEDYELVSTHPTRTSKVRQLLDTTDIQGEEFAKVIVQKLKDNKQMGLQ [K43H]  -0.109 ± 0.28
9. QWIQSKREDIVNQMTEACLNQSLDALLSRDLIMKEDYELVSNKPTRTSKVRQLLDTTDIQGEEFAKVIVQKLKDNKQMGLQ [T42N]  -0.115 ± 0.15
10. QWIQSKREDIVNQMTEACLNQSLDALLSRDLIMKEDYELVSTKETRTSKVRQLLDTTDIQGEEFAKVIVQKLKDNKQMGLQ [P44E]  -0.141 ± 0.1
11. QWIQSKREDIVNQMTEACLNQSLDALLSRDLIMKEDYELVSTKATRTSKVRQLLDTTDIQGEEFAKVIVQKLKDNKQMGLQ [P44A]  -0.181 ± 0.079
12. QWIQSKREDIVNQMTEACLNQSLDALLSRDLIMKEDYELVSTKYTRTSKVRQLLDTTDIQGEEFAKVIVQKLKDNKQMGLQ [P44Y]  -0.2 ± 0.26
13. QWIQSKREDIVNQMTEACLNQSLDALLSRDLIMKEDYELVSKKPTRTSKVRQLLDTTDIQGEEFAKVIVQKLKDNKQMGLQ [T42K]  -0.206 ± 0.42
14. QWIQSKREDIVNQMTEACLNQSLDALLSRDLIMKEDYELVSTCPTRTSKVRQLLDTTDIQGEEFAKVIVQKLKDNKQMGLQ [K43C]  -0.219 ± 0.22
15. QWIQSKREDIVNQMTEACLNQSLDALLSRDLIMKEDYELVSLKPTRTSKVRQLLDTTDIQGEEFAKVIVQKLKDNKQMGLQ [T42L]  -0.225 ± 0.073
16. QWIQSKREDIVNQMTEACLNQSLDALLSRDLIMKEDYELVSTKLTRTSKVRQLLDTTDIQGEEFAKVIVQKLKDNKQMGLQ [P44L]  -0.263 ± 0.067
17. QWIQSKREDIVNQMTEACLNQSLDALLSRDLIMKEDYELVSTKRTRTSKVRQLLDTTDIQGEEFAKVIVQKLKDNKQMGLQ [P44R]  -0.265 ± 0.052
18. QWIQSKREDIVNQMTEACLNQSLDALLSRDLIMKEDYELVSTKSTRTSKVRQLLDTTDIQGEEFAKVIVQKLKDNKQMGLQ [P44S]  -0.304 ± 0.075
19. QWIQSKREDIVNQMTEACLNQSLDALLSRDLIMKEDYELVSTKGTRTSKVRQLLDTTDIQGEEFAKVIVQKLKDNKQMGLQ [P44G]  -0.314 ± 0.064
20. QWIQSKREDIVNQMTEACLNQSLDALLSRDLIMKEDYELVSTVPTRTSKVRQLLDTTDIQGEEFAKVIVQKLKDNKQMGLQ [K43V]  -0.348 ± 0.11
21. QWIQSKREDIVNQMTEACLNQSLDALLSRDLIMKEDYELVSYKPTRTSKVRQLLDTTDIQGEEFAKVIVQKLKDNKQMGLQ [T42Y]  -0.406 ± 0.15
22. QWIQSKREDIVNQMTEACLNQSLDALLSRDLIMKEDYELVSVKPTRTSKVRQLLDTTDIQGEEFAKVIVQKLKDNKQMGLQ [T42V]  -0.415 ± 0.061
23. QWIQSKREDIVNQMTEACLNQSLDALLSRDLIMKEDYELVSTGPTRTSKVRQLLDTTDIQGEEFAKVIVQKLKDNKQMGLQ [K43G]  -0.451 ± 0.049
24. QWIQSKREDIVNQMTEACLNQSLDALLSRDLIMKEDYELVSTSPTRTSKVRQLLDTTDIQGEEFAKVIVQKLKDNKQMGLQ [K43S]  -0.46 ± 0.088
25. QWIQSKREDIVNQMTEACLNQSLDALLSRDLIMKEDYELVSTFPTRTSKVRQLLDTTDIQGEEFAKVIVQKLKDNKQMGLQ [K43F]  -0.466 ± 0.14
26. QWIQSKREDIVNQMTEACLNQSLDALLSRDLIMKEDYELVSTKCTRTSKVRQLLDTTDIQGEEFAKVIVQKLKDNKQMGLQ [P44C]  -0.491 ± 0.15
27. QWIQSKREDIVNQMTEACLNQSLDALLSRDLIMKEDYELVSTIPTRTSKVRQLLDTTDIQGEEFAKVIVQKLKDNKQMGLQ [K43I]  -0.535 ± 0.28
28. QWIQSKREDIVNQMTEACLNQSLDALLSRDLIMKEDYELVSTPPTRTSKVRQLLDTTDIQGEEFAKVIVQKLKDNKQMGLQ [K43P]  -0.695 ± 0.25
29. QWIQSKREDIVNQMTEACLNQSLDALLSRDLIMKEDYELVSTKHTRTSKVRQLLDTTDIQGEEFAKVIVQKLKDNKQMGLQ [P44H]  -0.761 ± 0.2
30. QWIQSKREDIVNQMTEACLNQSLDALLSRDLIMKEDYELVSTTPTRTSKVRQLLDTTDIQGEEFAKVIVQKLKDNKQMGLQ [K43T]  -0.89 ± 0.25
31. QWIQSKREDIVNQMTEACLNQSLDALLSRDLIMKEDYELVSPKPTRTSKVRQLLDTTDIQGEEFAKVIVQKLKDNKQMGLQ [T42P]  -0.89 ± 0.16
32. QWIQSKREDIVNQMTEACLNQSLDALLSRDLIMKEDYELVSTYPTRTSKVRQLLDTTDIQGEEFAKVIVQKLKDNKQMGLQ [K43Y]  -1 ± 0.48
33. QWIQSKREDIVNQMTEACLNQSLDALLSRDLIMKEDYELVSTWPTRTSKVRQLLDTTDIQGEEFAKVIVQKLKDNKQMGLQ [K43W]  -1.04 ± 0.34
34. QWIQSKREDIVNQMTEACLNQSLDALLSRDLIMKEDYELVSTDPTRTSKVRQLLDTTDIQGEEFAKVIVQKLKDNKQMGLQ [K43D]  -1.06 ± 0.37
